Source: article PMC4887326, “Structural insights into the regulatory mechanism of the Pseudomonas aeruginosa YfiBNR system” (Protein & Cell, 2016)

B1: YfiR (residues 35–190), co-expressed with YfiB (domain or fragment, P. aeruginosa, UniProt Q9I4L4 35-190, looked up)
chain: DDARTSIEQRSNAVSQVLLGIFSYVRWPKEPAVLQLCVVGPTEYADGLLRGMVQANGRRVHAERRAVDNPDLGTLCNVIYLGVVDERERQQVFRSLAGHPVLSISERGTECSVGSMFCLNVGGPRITFEANLDSIARSGVRVHPSVLKLARRQATP
notes: YfiR, P. aeruginosa, residues 35-190, lacking the signal peptide; ORF1 of pETDuet-1 with N-terminal His6 and a TEV cleavage site; Dimer in the 2:2 complex; only the Cys145-Cys152 disulfide is well formed there; not shown: His6, N-terminal, kept

Tests used:
[1] = biological target: the molecule itself; experiment: crystal structure; YfiB^L43P-YfiR complex, space group P1, 1.78 Å, 2:2 heterotetramer in the asymmetric unit; 0.2 mol/L ammonium sulfate, 0.1 mol/L Tris-HCl pH 8.0, 12% PEG 8000, 293 K
[2] = biological target: the molecule itself; experiment: crystal structure; VB6-bound (soaked, 2.4 Å) and Trp-bound (co-crystallised, 2.5 Å) YfiR, space group P4_3 2_1 2, a dimer in the asymmetric unit
[3] = biological target: the molecule itself; experiment: AUC; sedimentation velocity, 25°C, samples at OD280 of 0.7 in 20 mmol/L Tris pH 8.0, 200 mmol/L NaCl, 60,000 rpm; dimer to monomers
[4] = biological target: B1; experiment: crystal structure; YfiB^L43P-YfiR complex, space group P1, 1.78 Å, 2:2 heterotetramer in the asymmetric unit; 0.2 mol/L ammonium sulfate, 0.1 mol/L Tris-HCl pH 8.0, 12% PEG 8000, 293 K; settings: both partners purified

B1
binding result [1]: binds

B2: YfiR (residues 35–190), purified alone (domain or fragment, P. aeruginosa, UniProt Q9I4L4 35-190, looked up)
chain: DDARTSIEQRSNAVSQVLLGIFSYVRWPKEPAVLQLCVVGPTEYADGLLRGMVQANGRRVHAERRAVDNPDLGTLCNVIYLGVVDERERQQVFRSLAGHPVLSISERGTECSVGSMFCLNVGGPRITFEANLDSIARSGVRVHPSVLKLARRQATP
notes: YfiR, P. aeruginosa, residues 35-190, lacking the predicted N-terminal periplasmic localization signal peptide; also called native YfiR; not shown: His6, N-terminal, cleaved
binding result [2]: binds

B3: YfiB (residues 34–168), wild type (domain or fragment)
chain: GLSAEQIAVLQEQGFELRDEGWEFGMSSKVLFGNNLDRLNPDSRNTLTKIARALLAVDIDKVRLEGHTDNYGDEGYNQKLSERRAESVAAVFREAGMPAANIEVRGLGMSKPVADNKTRAGRSENRRVAIIVPAE
notes: YfiB, P. aeruginosa, residues 34-168, lacking the signal peptide (residues 1-26) and periplasmic residues 27-33; ORF1 of pETDuet-1 with N-terminal His6 and a TEV cleavage site; no cleavage of the tag is told for YfiB; Monomer and dimer in solution (AUC); also called wild-type YfiB; apo YfiB
stoichiometry N [3]: 2

B4: YfiB^L43P (residues 34–168), co-expressed with YfiR (domain or fragment)
chain: GLSAEQIAVPQEQGFELRDEGWEFGMSSKVLFGNNLDRLNPDSRNTLTKIARALLAVDIDKVRLEGHTDNYGDEGYNQKLSERRAESVAAVFREAGMPAANIEVRGLGMSKPVADNKTRAGRSENRRVAIIVPAE
notes: YfiB, P. aeruginosa, residues 34-168, with L43P; residues 44-168 are visible in the complex structure; Two copies in the 2:2 heterotetramer, separated from each other
stoichiometry N [4]: 1 YfiB per YfiR (printed as 2:2)
